In paper PMC6802964:

Key:
Assay in all cases: other fluorescence titration; change of the CyPet-YPet FRET signal of the IQ-FRET protein (1 µM by the methods, 0.5 µM by the legend) with varying concentrations of Cam1 or Cam2; 140 mM KCl, 20 mM MOPS pH 7.0, with or without 2 mM MgCl2, 2 mM EGTA (absence of calcium)
[1] = target: CyPet–Myo1^IQ12S742D–YPet FRET reporter protein (S742D phosphomimetic) (S. pombe)
[2] = target: T1, CyPet–Myo1^IQ12–YPet FRET reporter protein (S. pombe)
T1 sequence (Q9Y7Z8 whole entry, looked up): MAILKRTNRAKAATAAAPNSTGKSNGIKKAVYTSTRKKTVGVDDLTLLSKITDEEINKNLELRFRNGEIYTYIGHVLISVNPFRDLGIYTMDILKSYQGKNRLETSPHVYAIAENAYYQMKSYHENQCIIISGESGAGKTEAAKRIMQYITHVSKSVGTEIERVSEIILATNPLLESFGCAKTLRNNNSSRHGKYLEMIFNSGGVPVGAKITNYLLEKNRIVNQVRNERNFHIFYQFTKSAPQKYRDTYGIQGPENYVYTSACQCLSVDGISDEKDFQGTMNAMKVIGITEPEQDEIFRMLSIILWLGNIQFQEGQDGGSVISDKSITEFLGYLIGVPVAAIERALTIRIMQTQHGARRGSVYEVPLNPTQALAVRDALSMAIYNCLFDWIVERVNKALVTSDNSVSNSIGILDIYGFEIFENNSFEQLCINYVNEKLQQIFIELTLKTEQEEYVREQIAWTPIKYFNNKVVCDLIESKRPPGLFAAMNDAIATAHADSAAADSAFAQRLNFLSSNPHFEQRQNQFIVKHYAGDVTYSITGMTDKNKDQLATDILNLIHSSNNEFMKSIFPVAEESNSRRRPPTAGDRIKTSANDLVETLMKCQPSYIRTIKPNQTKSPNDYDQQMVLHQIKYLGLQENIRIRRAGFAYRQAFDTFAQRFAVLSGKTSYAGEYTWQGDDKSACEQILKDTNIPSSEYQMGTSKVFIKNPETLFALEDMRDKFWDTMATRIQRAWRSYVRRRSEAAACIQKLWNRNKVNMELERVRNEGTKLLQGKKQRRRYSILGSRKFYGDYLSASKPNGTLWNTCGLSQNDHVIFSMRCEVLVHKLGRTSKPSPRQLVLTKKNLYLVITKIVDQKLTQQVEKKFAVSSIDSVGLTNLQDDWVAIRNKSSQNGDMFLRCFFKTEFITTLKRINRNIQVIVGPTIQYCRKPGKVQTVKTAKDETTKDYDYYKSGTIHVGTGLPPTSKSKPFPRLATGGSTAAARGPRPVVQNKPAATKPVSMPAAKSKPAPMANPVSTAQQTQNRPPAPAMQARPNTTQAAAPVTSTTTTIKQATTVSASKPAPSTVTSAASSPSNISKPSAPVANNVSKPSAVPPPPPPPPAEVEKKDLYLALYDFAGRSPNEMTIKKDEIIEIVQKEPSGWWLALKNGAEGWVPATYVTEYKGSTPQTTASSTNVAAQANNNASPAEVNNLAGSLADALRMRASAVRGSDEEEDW

[3] = target: T2, CyPet–Myo1^IQ1–YPet FRET reporter protein (S. pombe)
T2 sequence (Q9Y7Z8 whole entry, looked up): T1 sequence (Q9Y7Z8 whole entry, looked up)

drop in interaction against wild type Myo1^IQ12–FRET [1]: 50%
KD of the binding event that gives 70% of the signal change [2]: 1100 nM
stoichiometry N [2]: 2
Kd [3]: 400 nM
B1: Cam2 (calcium-insensitive calmodulin-like protein) (natural protein)
chain: MPASKEQTDEMKEAFVLYDIDKDGLIPTSHVGSVLRSLGINVTDAELAKLSNELGDAIDEKKFMSFVSNKLRETESEEEYIKAFRVFDKDNSGYIETAKFADYMKTLGEKLSDNEVQLMVQEADPTNSGSFDYYDFVQRIMAK
